Results as given in PMC10881741, “Structural modifications toward improved lead-203/lead-212 peptide-based image-guided alpha-particle radiopharmaceutical therapies for neuroendocrine tumors” (European Journal of Nuclear Medicine and Molecular Imaging, 2023).
Where two headings read alike, the source gives them in different places.

What was measured:
[1] = In vivo biodistribution of ^203Pb-labeled peptides; parameters: species or system mice; conditions: female, athymic nu/nu, mouse, total radioactivity; for tissue uptake at 1 h / tissue uptake at 3 h / tissue uptake at 6 h / tissue uptake at 24 h: intravenous; for tissue to tissue ratio at 1 h / tissue to tissue ratio at 3 h / tissue to tissue ratio at 24 h: iv
Procedure: (§1) AR42J cells (5.0 × 10^6 cells/animal) were implanted subcutaneously on the left shoulder of female athymic nu/nu mice. […] Extra groups of mice were co-administered 37 kBq of ^203Pb-PSC-PEG2-TOC with DL-lysine (400 mg/kg) to determine the effect of amino acid on renal uptake of the radiopharmaceutical. Mice (n=3 per time point) were euthanized at 1, 3, and 24 h post-administration, and tumors and organs/tissues of interest were excised and weighed. The radioactivities of the samples were measured using the gamma counter.

[2] = tested on: AR42J tumor xenograft; assay: In vivo biodistribution of ^203Pb-labeled peptides; parameters: species or system mice; conditions: DL-lysine 400 mg/kg, 3 h post-administration
Procedure: as §1

[3] = tested on: AR42J cells; assay: Cellular uptake of ^203Pb-labeled peptides; format: cell-based, rat; conditions: 2 h post-incubation
Procedure: PSCTOC and PSC-PEG2-TOC were labeled with ^203Pb and purified via HPLC for high molar activities as descibed in the Supplementary Material and in Li and collaborators. The HPLC-purified ^203Pb-labeled peptides (3.4 kBq) were incubated with AR42J cells in 24-well plates (pre-coated with poly-D-lysine), which were plated at a density of 2.0 × 10^5 cells 2 days prior, in the binding medium at 37 °C for up to 120 min. The cells were then washed twice and lysed, and the radioactivities of the samples were determined (n=3).

## C[C@@H](O)[C@@H]1NC(=O)[C@H](CCCCN)NC(=O)[C@@H](Cc2c[nH]c3ccccc23)NC(=O)[C@H](Cc2ccc(O)cc2)NC(=O)[C@@H](NC(=O)[C@@H](Cc2ccccc2)NC(=O)CCOCCOCCNC(=O)CN2CCN(CC(=O)O)CCN(CC(N)=O)CCN(CC(=O)O)CC2)CSSC[C@@H](C(=O)N[C@H](CO)[C@@H](C)O)NC1=O [[^203Pb]Pb-PSC-PEG2-TOC, metal not drawn]
[1]; lung, 1 h, DL-lysine co-administered, read-out: Lung
  tissue uptake at 1 h: 4.48 ± 4.47 %ID/g
[1]; lung, 3 h (Blocking): 10 nmol unlabeled PSC-PEG2-TOC co-administered, read-out: Lung
  tissue uptake at 3 h: 0.26 ± 0.03 %ID/g
[1]; lung, 3 h, DL-lysine co-administered, read-out: Lung
  tissue uptake at 3 h: 4.76 ± 3.19 %ID/g
[1]; lung, DL-lysine co-administered, read-out: Lung
  tissue uptake at 6 h: 5.6 ± 1.27 %ID/g
[1]; lung, 24 h, DL-lysine co-administered, read-out: Lung
  tissue uptake at 24 h: 1.11 ± 0.74 %ID/g
[1]; muscle, 37 kBq, 1 h post-administration, read-out: Muscle
  tissue uptake at 1 h: 0.29 ± 0.27 %ID/g
[1]; muscle, 37 kBq, 3 h (No Lys), Table S4 study, read-out: Muscle
  tissue uptake at 3 h: 0.17 ± 0.1 %ID/g
[1]; muscle, 37 kBq, 3 h post-administration, read-out: Muscle
  tissue uptake at 3 h: 0.03 ± 0.01 %ID/g
[1]; muscle, 37 kBq, 24 h post-administration, read-out: Muscle
  tissue uptake at 24 h: 0.02 ± 0.01 %ID/g
[1]; muscle, 1 h, DL-lysine co-administered, read-out: Muscle
  tissue uptake at 1 h: 0.48 ± 0.26 %ID/g
[1]; muscle, 3 h (Blocking): 10 nmol unlabeled PSC-PEG2-TOC co-administered, read-out: Muscle
  tissue uptake at 3 h: 0.06 ± 0.03 %ID/g
[1]; muscle, 3 h, DL-lysine co-administered, read-out: Muscle
  tissue uptake at 3 h: 0.03 ± 0.01 %ID/g
[1]; muscle, DL-lysine co-administered, read-out: Muscle
  tissue uptake at 6 h: 0.02 ± 0.02 %ID/g
[1]; muscle, 24 h, DL-lysine co-administered, read-out: Muscle
  tissue uptake at 24 h: 0.01 ± 0.01 %ID/g
[1]; pancreas, 37 kBq, 3 h (No Lys), Table S4 study, read-out: Pancreas
  tissue uptake at 3 h: 2.29 ± 1.63 %ID/g
[1]; pancreas, 1 h, DL-lysine co-administered, read-out: Pancreas
  tissue uptake at 1 h: 5.04 ± 1.33 %ID/g
[1]; pancreas, 3 h (Blocking): 10 nmol unlabeled PSC-PEG2-TOC co-administered, read-out: Pancreas
  tissue uptake at 3 h: 0.22 ± 0.04 %ID/g
[1]; pancreas, 3 h, DL-lysine co-administered, read-out: Pancreas
  tissue uptake at 3 h: 2.1 ± 0.68 %ID/g
[1]; pancreas, DL-lysine co-administered, read-out: Pancreas
  tissue uptake at 6 h: 0.75 ± 0.16 %ID/g
[1]; pancreas, 24 h, DL-lysine co-administered, read-out: Pancreas
  tissue uptake at 24 h: 0.33 ± 0.08 %ID/g
[1]; small intestine, 37 kBq, 1 h post-administration, read-out: Small intestine
  tissue uptake at 1 h: 1.34 ± 0.35 %ID/g
[1]; small intestine, 37 kBq, 3 h (No Lys), Table S4 study, read-out: Small intestine
  tissue uptake at 3 h: 0.6 ± 0.11 %ID/g
[1]; small intestine, 37 kBq, 3 h post-administration, read-out: Small intestine
  tissue uptake at 3 h: 1.85 ± 0.22 %ID/g
[1]; small intestine, 37 kBq, 24 h post-administration, read-out: Small intestine
  tissue uptake at 24 h: 0.17 ± 0.01 %ID/g
[1]; small intestine, 1 h, DL-lysine co-administered, read-out: Small intestine
  tissue uptake at 1 h: 1.9 ± 0.74 %ID/g
[1]; small intestine, 3 h (Blocking): 10 nmol unlabeled PSC-PEG2-TOC co-administered, read-out: Small intestine
  tissue uptake at 3 h: 0.81 ± 0.71 %ID/g
[1]; small intestine, 3 h, DL-lysine co-administered, read-out: Small intestine
  tissue uptake at 3 h: 2.37 ± 0.78 %ID/g
[1]; small intestine, DL-lysine co-administered, read-out: Small intestine
  tissue uptake at 6 h: 0.94 ± 0.32 %ID/g
[1]; small intestine, 24 h, DL-lysine co-administered, read-out: Small intestine
  tissue uptake at 24 h: 0.15 ± 0.02 %ID/g
[1]; spleen, 37 kBq, 1 h post-administration, read-out: Spleen
  tissue uptake at 1 h: 1.21 ± 0.17 %ID/g
[1]; spleen, 37 kBq, 3 h (No Lys), Table S4 study, read-out: Spleen
  tissue uptake at 3 h: 0.97 ± 0.47 %ID/g
[1]; spleen, 37 kBq, 3 h post-administration, read-out: Spleen
  tissue uptake at 3 h: 0.54 ± 0.29 %ID/g
[1]; spleen, 37 kBq, 24 h post-administration, read-out: Spleen
  tissue uptake at 24 h: 0.28 ± 0.07 %ID/g
[1]; spleen, 1 h, DL-lysine co-administered, read-out: Spleen
  tissue uptake at 1 h: 1.04 ± 0.4 %ID/g
[1]; spleen, 3 h (Blocking): 10 nmol unlabeled PSC-PEG2-TOC co-administered, read-out: Spleen
  tissue uptake at 3 h: 0.14 ± 0.07 %ID/g
[1]; spleen, 3 h, DL-lysine co-administered, read-out: Spleen
  tissue uptake at 3 h: 0.81 ± 0.3 %ID/g
[1]; spleen, DL-lysine co-administered, read-out: Spleen
  tissue uptake at 6 h: 0.73 ± 0.17 %ID/g
[1]; spleen, 24 h, DL-lysine co-administered, read-out: Spleen
  tissue uptake at 24 h: 0.41 ± 0.28 %ID/g
[1]; stomach, 37 kBq, 3 h (No Lys), Table S4 study, read-out: Stomach
  tissue uptake at 3 h: 0.95 ± 0.13 %ID/g
[1]; stomach, 1 h, DL-lysine co-administered, read-out: Stomach
  tissue uptake at 1 h: 1.46 ± 0.32 %ID/g
[1]; stomach, 3 h (Blocking): 10 nmol unlabeled PSC-PEG2-TOC co-administered, read-out: Stomach
  tissue uptake at 3 h: 0.36 ± 0.15 %ID/g
[1]; stomach, 3 h, DL-lysine co-administered, read-out: Stomach
  tissue uptake at 3 h: 2.36 ± 0.44 %ID/g
[1]; stomach, DL-lysine co-administered, read-out: Stomach
  tissue uptake at 6 h: 0.78 ± 0.2 %ID/g
[1]; stomach, 24 h, DL-lysine co-administered, read-out: Stomach
  tissue uptake at 24 h: 0.3 ± 0.12 %ID/g
[1]; tumor, 37 kBq, 1 h post-administration, read-out: Tumor
  tissue uptake at 1 h: 28.2 ± 8.63 %ID/g
[1]; tumor, 37 kBq, 3 h (No Lys), Table S4 study, read-out: Tumor
  tissue uptake at 3 h: 19.8 ± 1.61 %ID/g
[1]; tumor, 37 kBq, 3 h post-administration, read-out: Tumor
  tissue uptake at 3 h: 22.8 ± 2.8 %ID/g
[1]; tumor, 37 kBq, 24 h post-administration, read-out: Tumor
  tissue uptake at 24 h: 12.2 ± 3.81 %ID/g
[1]; tumor, 1 h, DL-lysine co-administered, read-out: Tumor
  tissue uptake at 1 h: 24.4 ± 1.85 %ID/g
[1]; tumor, 3 h (Blocking): 10 nmol unlabeled PSC-PEG2-TOC co-administered, read-out: Tumor
  tissue uptake at 3 h: 2.41 ± 0.46 %ID/g
[1]; tumor, 3 h, DL-lysine co-administered, read-out: Tumor
  tissue uptake at 3 h: 22.9 ± 1.09 %ID/g
[1]; tumor, DL-lysine co-administered, read-out: Tumor
  tissue uptake at 6 h: 18.9 ± 1.86 %ID/g
[1]; tumor, 24 h, DL-lysine co-administered, read-out: Tumor
  tissue uptake at 24 h: 7.44 ± 0.41 %ID/g
[1]; tumor/blood, 37 kBq, 1 h post-administration, read-out: Tumor/blood ratio
  tissue to tissue ratio at 1 h: 78.3
[1]; tumor/blood, 37 kBq, 3 h post-administration, read-out: Tumor/blood ratio
  tissue to tissue ratio at 3 h: 456
[1]; tumor/blood, 37 kBq, 24 h post-administration, read-out: Tumor/blood ratio
  tissue to tissue ratio at 24 h: 610
[1]; tumor/kidneys, 37 kBq, 1 h post-administration, read-out: Tumor/kidneys ratio
  tissue to tissue ratio at 1 h: 1.37
[1]; tumor/kidneys, 37 kBq, 3 h post-administration, read-out: Tumor/kidneys ratio
  tissue to tissue ratio at 3 h: 1.44
[1]; tumor/kidneys, 37 kBq, 24 h post-administration, read-out: Tumor/kidneys ratio
  tissue to tissue ratio at 24 h: 8.36
[1]; tumor/liver, 37 kBq, 1 h post-administration, read-out: Tumor/liver ratio
  tissue to tissue ratio at 1 h: 78.3
[1]; tumor/liver, 37 kBq, 3 h post-administration, read-out: Tumor/liver ratio
  tissue to tissue ratio at 3 h: 99.1
[1]; tumor/liver, 37 kBq, 24 h post-administration, read-out: Tumor/liver ratio
  tissue to tissue ratio at 24 h: 153
[1]; tumor/lung, 37 kBq, 1 h post-administration, read-out: Tumor/lung ratio
  tissue to tissue ratio at 1 h: 7.87
[1]; tumor/lung, 37 kBq, 3 h post-administration, read-out: Tumor/lung ratio
  tissue to tissue ratio at 3 h: 60
[1]; tumor/lung, 37 kBq, 24 h post-administration, read-out: Tumor/lung ratio
  tissue to tissue ratio at 24 h: 8.36
[1]; tumor/muscle, 37 kBq, 1 h post-administration, read-out: Tumor/muscle ratio
  tissue to tissue ratio at 1 h: 97.2
[1]; tumor/muscle, 37 kBq, 3 h post-administration, read-out: Tumor/muscle ratio
  tissue to tissue ratio at 3 h: 760
[1]; tumor/muscle, 37 kBq, 24 h post-administration, read-out: Tumor/muscle ratio
  tissue to tissue ratio at 24 h: 610
[2]
  Reduction of renal accumulation by co-administration of DL-lysine: 56%
[3]
  Cellular uptake, factor vs. [^203Pb]Pb-PSCTOC: 4
  Cellular uptake, fold vs. [^203Pb]Pb-DOTATOC: 21 fold
[3]; 37 °C
  Cellular uptake: 18%
